Data as given in patent US9885687B2, “Apparatus and method for evaluating characteristics of target molecules” (Dynamic Biosensors GmbH, priority 2010, dated 2018).

Test: voltage response curve (normalized fluorescence versus static substrate potential) to determine target charge
Type: physicochemical
Details: protein bound to probe DNA
From the text: Note that so far no time dependence has been introduced, since the electric field has been kept stationary. However, with the above equation, it is possible to calculate the fluorescence signal for different values of the applied static potential Φ. The corresponding curve is referred to as “voltage response curve” in the following.
Further note that the model so far only accounted for the free probe molecule, i.e. the double-stranded DNA, but not for any target molecule. As long as the stationary state is concerned, i.e. without a time-dependent electrical field, the target molecule will mainly affect the results due to a possible charge thereof. In fact, based on the above understanding of the stochastic behaviour of the probe molecule, the inventors conjectured that it should be possible to qualitatively and quantitatively determine the charge of the target molecule from the voltage response curve.
The corresponding voltage response curve is shown by filled circles, while the voltage response curve of the free DNA is again shown by open diamonds. It can be seen that the voltage response curve in presence of the avidin also differs noticeably from that of the DNA alone.

| Substance | charge of the target molecule |
| --- | --- |
| avidin: positively charged protein bound to the probe DNA | positively charged |
| streptavidin: negatively charged protein bound to the probe DNA | negatively charged |
